Results published in PMC12416549 (2024).
Numbering of substitutions follows the chain as printed. Names may count otherwise. Blank lines part the entries; values can stand above or below the binder they belong to.

Target: T1, TNFR1 (Homo sapiens, UniProt P19438)
T1 chain: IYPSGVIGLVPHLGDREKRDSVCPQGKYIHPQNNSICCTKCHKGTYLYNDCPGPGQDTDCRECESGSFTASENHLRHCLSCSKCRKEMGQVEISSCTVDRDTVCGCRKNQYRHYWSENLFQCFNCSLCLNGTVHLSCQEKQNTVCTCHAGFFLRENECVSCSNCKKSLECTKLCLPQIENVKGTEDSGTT
Assay: yeast display SC50

apparent Kd (screen): 0.539 nM
B1: T97K (designed binder)
chain: SMEEEVEKAAKEYEKKKKEAIEKHLEKLKAKDKEAAERFLKELEEAAKEYAKDEAKTMSEEEAKRRAKKYKEKVLLSELSEEEQKEIKEAEEKLVRKILKYVEEAAK

apparent Kd (screen): 1.69 nM
B2: E89H (designed binder)
chain: B1 chain with E89H, K97T

apparent Kd (screen): 0.446 nM
B3: Y101D (designed binder)
chain: B1 chain with K97T, Y101D

apparent Kd (screen): 5.31 nM
B4: Y70P (designed binder)
chain: B1 chain with Y70P, K97T

apparent Kd (screen): 1.27 nM
B5: K68G (designed binder)
chain: B1 chain with K68G, K97T

apparent Kd (screen): 0.446 nM
B6: E19V (designed binder)
chain: B1 chain with E19V, K97T

apparent Kd (screen): 2.25 nM
B7: E62G (designed binder)
chain: B1 chain with E62G, K97T

apparent Kd (screen): 7.78 nM
B8: E91I (designed binder)
chain: B1 chain with E91I, K97T

apparent Kd (screen): 0.869 nM
B9: E22N (designed binder)
chain: B1 chain with E22N, K97T

apparent Kd (screen): 1.27 nM
B10: E4C (designed binder)
chain: B1 chain with E4C, K97T

apparent Kd (screen): 2.48 nM
B11: A46V (designed binder)
chain: B1 chain with A46V, K97T

apparent Kd (screen): 0.49 nM
B12: K48D (designed binder)
chain: B1 chain with K48D, K97T

apparent Kd (screen): 1.54 nM
B13: E61I (designed binder)
chain: B1 chain with E61I, K97T

apparent Kd (screen): 1.54 nM
B14: A46R (designed binder)
chain: B1 chain with A46R, K97T

apparent Kd (screen): 0.446 nM
B15: K41V (designed binder)
chain: B1 chain with K41V, K97T

apparent Kd (screen): 2.73 nM
B16: E78W (designed binder)
chain: B1 chain with E78W, K97T

apparent Kd (screen): 1.05 nM
B17: E34A (designed binder)
chain: B1 chain with E34A, K97T

apparent Kd (screen): 2.48 nM
B18: Q84L (designed binder)
chain: B1 chain with Q84L, K97T

apparent Kd (screen): 1.05 nM
B19: K100M (designed binder)
chain: B1 chain with K97T, K100M

apparent Kd (screen): 0.49 nM
B20: K88Q (designed binder)
chain: B1 chain with K88Q, K97T

apparent Kd (screen): 1.86 nM
B21: E78R (designed binder)
chain: B1 chain with E78R, K97T

apparent Kd (screen): 1.05 nM
B22: H24A (designed binder)
chain: B1 chain with H24A, K97T

apparent Kd (screen): 15.2 nM
B23: K73W (designed binder)
chain: B1 chain with K73W, K97T

apparent Kd (screen): 1.86 nM
B24: E4K (designed binder)
chain: B1 chain with E4K, K97T
